Data reported in the DeepSol protein solubility set.

Assay: soluble on expression in E. coli; label from the status in PepcDB or PDB records

Sequence	soluble on expression in E. coli
MLHAETEVIVEDEPPILNLSRYRDEDRIQMDPFGDDEEEDDGFMDGQPPDLEMNLPSKQRRVRTRKPMDTDGSIDDGDKEKKAMKIINPAAATPSKMFRVQGERVISKALAERQYHVKLFEDEVEMTENGDCYATVISGCLAYLLRKERIIELLTNETEIAMMYGDKKKKYKKKISSKNKENCQNFKLLSEKSVRKKKQKSTVPIFSREGGWLLDKPPRLPPLVPHKACFAFYVDGSKIMSIKDVSNDDLKPWSSTGGEQHFNDPVIKPNVRRHPVARLNGRLQSVKGDPRIAELHLTEYSAWLPRLLRLRKKIFYLSRDGQIYGNVLILYDYTCPGEIPPIVNLPHGNDYLRHAMVDPTDPHVSLDLDDPGSTPFEDEIVEGPRGGMFLRVKLAKLGWAHNKKLLLRYLVNEPELLSQSNCLNRRTPYLPPLIPTTGVFVYFVPANFVANQINHTGDGLSPWTVNPASEGPSPRVRSTRRAIVQDDNGQFQMAKDTAGGWHSSQLCLVETMSVLARCPRLRKRLIYIQRNNTITIGNVCYIYEYVRDGPVPCPYVKPPGTPGRGVGGSKWIDDQKKIDTSQDPSTSSAAPNDEEQFIDVEDLEVVEEEVIGHHNDSLDQIQLQHDQHQQQQHQLMQDVSIAQDAQGHLLDDDLLDMSQEDVLNNGYDLEFDDDPLTQQENPAPYFENPRQLETGHIYLTVRHKRVASTFEAVLEWIANTNVVEERGLLNYAKPGHPPIVRNSRAYAFFVAGTAIFPHDINRDDFSPWSHNGNAQNPTCYRTKVRKVGVICDELGSQFQVLHGSQGKQPKKSDGNRRSPKIPKSAYFL	not soluble
MAHHHHHHMMLHTRRTVYSCICVHTHTHTHTCGCPPPTLSQKKKRSRLFMSSSSGDEYDPAEVTVHTTVASPSLSDTVVPSAAPFLRSAAGNASAATVAAAPALASLPKTAASVLPSSSSPTPPNTGNDVDGGYRLHSNIKGRIRCLTLNTAGTTLCAGSEDGQLCMWDFTVPLKSYRVQPTRVLTPFVNRISGLQPIIALTCASDDSYFVACQDGDSPVLVRASGEQLGYCAIGERGLMDVIQCKGHRAPVTCVAAHTHDAAAFFTGSQDGTVRLWNTATFKQRSVYAVKHGSGQLTDTHAVESVASLDSFHNGLGRVFASGGQDGRVQIWDSRVKYRPGGAIATVDMYAAAAPAGPDKVTEDPFMEKHVGGMMELHQKDAGASNASGSYGLAVRLGSAVKIIDLRQLSHSDGTTAPKAVLQEAATGLPHVLDTSALSIGRGGGSSTMMTCTSRVGYRHTKGGHVVQYRYADGDRLVPTLVWRAGKQDEDVLCACADISRADGCVFAGLSSGDVVVHGAFSSGAAAPQPMEAWLQTRPQREGYERAVGVKAPRAVEDDADLLRDLF	not soluble
MAHHHHHHMAYVFDKITKTVTIYMGNTKSKIVLGGLWQRGMKGYIIYDVARQGTPPDTNFAPTTGWSMILVSSPNVRNYDGWATQVKASRIIMNCPDEMDVKAMCAWMKRGLDTDKQAGYWKMVEKHMEKVGPIPRHIFDADEYGERTWDATSALRWINIGEQRKYFTKGGEQWYSEDLSHKLLKIVRVREDGAFEDLSNAPICDYLGVLTVSRLAKALSPNDILFLVLGMKNVVQSAALKKYGLNVFLSVEFVTSIVTDLKELQPPSPSEPRSSVLTLNPHGYPTEAAAITELKFIDRPQELKYRVLYIPTFPTFPLVDGFFFVDSPRKTLVGLQMTTASAHHTTASTVRQFTECMAAYFDDWDEFSRDMSWDMIYIQHAASKPMKKRQKCLYVDSNNKTDAEKKIVAFWNGKVHQYQFVLTTDF	not soluble
MVIPALNEAPTVAKVVEAVLADNPLEVLVIDADSTDATAAEARSAGATVLNWREILDTEPIPGKGESLWRGVAAARGDIVVFVDADLTSFRPGMVNSLVAPFLNDDIHLVKADYVRTFGDHTTGGGRVTELTAKPLLRALFPELSHIRQPLGGEYAIRRSTALAMPFVSGYGVEVGLLIDVATQFGTSSIAQVDLGSRSHNHQSLEALGSMADVVATTILQRFGHDLPVVQREPLGIHLEHHHHHH	not soluble
MGHHHHHHSHMKSQGQHWYSSSDKNCKVSFREKLLIIDSNLGVQDVENLKFLCIGLVPNKKLEKSSSASDVFEHLLAEDLLSEEDPFFLAELLYIIRQKKLLQHLNCTKEEVERLLPTRQRVSLFRNLLYELSEGIDSENLKDMIFLLKDSLPKTEMTSLSFLAFLEKQGKIDEDNLTCLEDLCKTVVPKLLRNIEKYKREKAIQIVTPPVDKEAESYQGEEELVSQTDVKTFLEALPQESWQNKHAGSNGNRATNGAPSLVSRGMQGASANTLNSETSTKRAAVYRMNRNHRGLCVIVNNHSFTSLKDRQGTHKDAEILSHVFQWLGFTVHIHNNVTKVEMEMVLQKQKCNPAHADGDCFVFCILTHGRFGAVYSSDEALIPIREIMSHFTALQCPRLAEKPKLFFIQACQGEEIQPSVSIEADALNPEQ	not soluble
MDFSGKNVWVTGAGKGIGYATALAFVEAGAKVTGFDQAFTQEQYPFATEVMDVADAAQVAQVCQRLLAETERLDALVNAAGILRMGATDQLSKEDWQQTFAVNVGGAFNLFQQTMNQFRRQRGGAIVTVASDAAHTPRIGMSAYGASKAALKSLALSVGLELAGSGVRCNVVSPGSTDTDMQRTLWVSDDAEEQRIRGFGEQFKLGIPLGKIARPQEIANTILFLASDLASHITLQDIVVDGGSTLGA	soluble
MGSDKIHHHHHHMKISLAPISYCWSKSDVEHFYQQVALSNIDTVYLGETVCSRRRELKFNNYLDLANMLKSHGKHVVLSTMALIEAQSELNELKRAIDNGDFSIEANDMAAVHYAHQAKVPFVCGPTINNYNRTSLNLLHQKGMYRFVMPCELSQQWLNTVINQGDKPAFEIEVLGHGYLPLAHSARCFTAKHYQLPKDKCQTICQRHSKGLLAQTQESQPLLRLNGIQTQSAAQVNLINQIPQMIDMGIDYWRISPNKLTDVAMGSELAHVLAQITEDPFNSKALITKQFNDNKQASIINHHCNGYWLGLPGMDYSLEPNTPAG	not soluble
MKVAIASDHGGVHIRNEIKELMDELQIEYIDMGCDCGSGSVDYPDYAFPVAEKVVSGEVDRGILICGTGIGMSISANKVKGIRCALAHDTFSAKATREHNDTNILAMGERVIGPGLAREIAKIWLTTEFTGGRHQTRIGKISDYEEKNL	soluble
YENIQNIEDFYRFINAHALAVVHIMRDNCTVCHAVLPQIQDLLKDYPKAQLGVINQSNVEEIAGELSIFTVPVDLIFLKGKEMHRQARFIDMQSFEKQLYMMQNAID	soluble
MTQFAFVFPGQGSQSVGMLAEMAANYPIVEETFAEASAALGYDLWALTQQGPAEELNKTWQTQPALLTASVALWRVWQQQGGKMPALMAGHSLGEYSALVCAGVINFADAVRLVEMRGKFMQEAVPEGTGGMSAIIGLDDASIAKACEESAEGQVVSPVNFNSPGQVVIAGHKEAVERAGAACKAAGAKRALPLPVSVPSHCALMKPAADKLAVELAKITFSAPTVPVVNNVDVKCETDAAAIRDALVRQLYNPVQWTKSVEFIAAQGVEHLYEVGPGKVLTGLTKRIVDTLTASALNEPAALSAALTQ	not soluble
MSLAGGYVIDTTENTFQAMVQTSATFPILLFLWVPTDDRLFAMARALGDAVNKLNGQIQLSRIDIASNPSIAQAFQIQGAPALFALIGGRPMPILQGLPSDEELQQITDVVVPKLIAAAQQAGVTGTAPYSGDPDSDAANSASAGSVQDQVPPEHQEAYMLAQQGDYAGAAAAYEKVLEADPNDTRAARERAKALLLARSANADVRVVRAAAADKPDDVDAQLAVADIDMIGGQIQDAFDRLLDFVAAGHKADIEPVRQRLLEYFTIPEPTDERLKRARRRLATLMYEGHHHHHH	soluble
GEEKKDSKAFIDVSAATLWTAPDSLRPIDVPSATNPVDLWKWTKSMTLDEKLWLTNANKLETQALLGQEVTVVDKKGDWVKVLVHGQPTPRNEEGYPGWMPEKQLTYNQEFADKTNEPFVLVTKPTAILYINPSEKHKSLEVSYNTRLPLLSEDTISYRVLLPNGQKAWLRKNDGTFYRSQNDIPTPAADDLINTGKMFLGLPYIWAGTSGFGFDCSGFTHTIYKSHGITIPRDSGPQSRNGVAVDKEHLQKGDLIFFAHDQGKGSVHHVAMYIGDGNMIHSPRAERSVEIIPLNTPGYIEEYAGARRYLP	soluble
MGSDKIHHHHHHMSRDLPPLNALRAFESTARFGSVSQAAEQLSVTHGAVSRQLKVLEEHLGVSLFSKDGRGLKLTDAGIRLRDASADAFDRLRSVCAELSKGSVDAPFVLGCSGSLLARWFIPRLSRLNAELPDLRLHLSAGEGDLDPRRPGLDALLVFAEPPWPADMQVFELASERIGPVLSPRFARFESMRDAPANALLEESLLQTTSRPQAWPSWAQQNGIDPDALRYGQGFEHLYYLLEAAVAGLGIAIAPEPLVIDDLKAGRLAAPWGFSETPAQLALWVPRRAADGRARQLAQWLKNELKRSGDPIRN	not soluble
AIPAPTDLKFTQVTPTSLSAQWTPPNVQLTGYRVRVTPKEKTGPMKEINLAPDSSSVVVSGLMVATKYEVSVYALKDTLTSRPAQGVVTTLENVSPPRRARVTDATETTITISWRTKTETITGFQVDAVPANGQTPIQRTIKPDVRSYTITGLQPGTDYKIYLYTLNDNARSSPVVIDASTAIDAPSNLRFLATTPNSLLVSWQPPRARITGYIIKYEKPGSPPREVVPRPRPGVTEATITGLEPGTEYTIYVIALKNNQKSEPLIGRKKT	soluble
MSLPRFSNVSYEQYWALREQSDEWLEYIDGAVYMAPSPSIKHQLVSSNLHTELGLYFRGKPCNVFAAPTDIELASDKFPDRKVVIPDLSVICDSKGFTETKYVGVPTLIVEILSPSNQAHDLVTKFNLYMAYGVKEYWIVNPMKEAITVYTLNEEGLYEQADVKAGTGVVQSACFPRLEVALEDVFR	not soluble
MDSYGYVETLGLVTAIEAADAALKAANVTLMNCYYVKGGIVTIEVAGDVSAVTAAVDAATESAKRLGNFLSSNVIARIDSETKKILISDLGNKEKKQKIENKSVVKDTTIEKKATEKISTEEITEEIINESKNENFDEEQNKEINEKVTEIAEVYEKVENPAEKLDQNNDIQEKIEVFEIEVEKEDDEAEKLKKQYQGMKVIDLKKMVNSCKLGYTWNQIKTMPKKKLIEILIKNNKEEAQWQH	not soluble
MGSSHHHHHHSSGLVPAGSHMSDFDNITTADDVFKLAAQRTGLSEIDSDSWREGLALIVDEVNTSPVFTPFGRQRVLDDATNALGRRLQVHAYIQDHPEVLDAPVERPLIVLGMPRTGTTVISYLLDQDPARRSLLHWQCVHPIPPASTETLRTDPRCLALLDEQRKILDAVTRAKMPLPHWEDADGPTEDMFIHNQDFKGLSWDSFLPTDRYARWLFDEADMSSTYEYQKRYLQVLQSTAPGSWSLKMPSHSVHIEALLKVFPDARLIWAHRDPYKATGSLCNLWRLPQSLVMNTELLDQTEMGRLAMWQMRYHVDRPLRARERIGDERFFHMYYHEMMRDPMDVMRRIYEWADEPLTAETEARMRNWLAHHPQDRFALNAYRLDEYGLTVEALQPIFAEYLDTFDIELEGRP	soluble
MAHHHHHHMSFKPKIIVCSSPAELSGVACKKIVDIIHASERTNWPLSIALSGGSTPKMLYSRLHEEHLHLLKEERALRFFFGDERLVPADAAESNYNMARQALLHDIPEDLVVPVDVGCVGEVSNVACNDAVKAADAYEKRIDLLLGTQKVEGMEAEIPVFDIVLLGLGSDGHTASIFHGSQAESEMHRAVSVGFPSPTMSPKVWRVTLTPITIIHARHVILLATGKEKKCVLNGIIADTPTEVPVSRFLRNCKGDVTFILDREIAENLTC	soluble
MKLSDMQLFRGLEEDDISSLLSCLNSVKRNYKKGEVILSEGSIIENIGIVLSGMAMISCNEIWGNTSILGSVAPGSVFAEVYACIPGQPMLVTVSAVEDTSVLFMNVGRVLTTCTNACPFHTNLARNLLTVCAHKSLQLSQRILHTSSKSIRGRLMSYFSECAKHAGSNSFLIPYNRQQLADYLNVDRSTMCNELSKMQKDGMIEYKKNRILLKD	not soluble
